Results reported in article PMC9733425 (Journal of structural biology, 2022).

Target: the molecule itself
Experiment: SEC-MALS

B1: SAM1 domain of SASH1 (WT human SAM1::6xHis, residues 627-703) (domain or fragment, UniProt O94885 627-703, looked up)
chain: RRKGRPPQPKSVEDLLDRINLKEHMPTFLFNGYEDLDTFKLLEEEDLDELNIRDPEHRAVLLTAVELLQEYDSNSDQ
  stoichiometry N: 4
